Data on two molecules can be found in paper doi:10.1101/2021.09.08.459485 (2021).

For experiment [1], the target named is T1, SARS-CoV-2 Spike protein peptide on HLA-DPB1*04:01 (human).
T1 peptide: TFEYVSQPFLMDLE
Nature of the experiment: multimer staining.

Experiment [2] deals with T2, SARS-CoV-2 Spike protein peptide on HLA-DPB1*04:01 (human).
T2 peptide: CTFEYVSQPFLMDLE
As to the kind of experiment: activation reporter or marker.

B1: TCR6.3 (TCR)
alpha TRAV35 TRAJ42 CDR3: CAGMNYGGSQGNLIF
beta TRBV6-3 TRBJ1-2 CDR3: CASSYRGAYGYTF
With B1, the binding result in experiment [1] and in experiment [2] was “recognises” in each case.

B2: TCR4.1 (TCR)
alpha TRAV35 TRAJ42 CDR3: CAGMNYGGSQGNLIF
beta TRBV4-1 TRBJ1-2 CDR3: CASSQGVGYTF
As for B2, the binding result in experiment [1] and in experiment [2] was “recognises” in each case.
